Test [1] addresses T1, HLA-A2402 (human, UniProt P04439-2 25-302 at identity 0.92)).
T1 MHC heavy: not shown
Description: cell-based or functional assay.

Test [2] concerns the target T2, HLA-A0201 (human, UniProt P04439 25-302 at identity 0.94)).
T2 MHC heavy: not shown
Briefly: cell-based or functional assay.

The values that follow come from patent US20060140968A1 (GREEN PEPTIDE, published 2006).

In the case of AYIDFEMKI [SART-3 peptide "315-323" Ala-Tyr-Ile-Asp-Phe-Glu-Met-Lys-Ile], in test [1], the “IFN-γ in the supernatant (pg/ml) produced by KE-4CTL on HLA-A2402-transfected VA-13 cells pulsed with 10 µM peptide (no peptide: 677)” value (shortened to “IFN-γ in the supernatant … (no peptide: 677)”) was 880 pg/mL. The same measure, in the same setting: for NYNKALQQL [SART-3 peptide "284-292" Asn-Tyr-Asn-Lys-Ala-Leu-Gln-Gln-Leu] the value was 794 pg/mL; for VYDYNCHVDL [SART-3 peptide "109-118" Val-Tyr-Asp-Tyr-Asn-Cys-His-Val-Asp-Leu], 928 pg/mL. Take RLAEYQAYI [SART-3 peptide "309-317"]: in test [2], the “IFN-γ in the supernatant (pg/ml) produced by OK-CTL on HLA-A0201-positive T2 cells pulsed with 10 µM peptide, value with no peptide subtracted” value (from here on “IFN-γ … with no peptide subtracted”) stood at 231 pg/mL. The same measure, in the same setting: for LLAMERHGV [SART-3 peptide "386-394"] the value was 122 pg/mL. On the same count and under the same terms, for LLQAEAPRL [SART-3 peptide "302-310"] the value was 190 pg/mL. Turning to DYVEIWQAYL [SART-3 peptide "416-425"], the “IFN-γ in the supernatant … (no peptide: 677)” value in test [1] came out at 731 pg/mL. On to AFTRALEYL [SART-3 peptide "448-456" Ala-Phe-Thr-Arg-Ala-Leu-Glu-Tyr-Leu], for which the “IFN-γ in the supernatant … (no peptide: 677)” value in test [1] is 754 pg/mL. Same read-out and setting: as for DYLRRRVDF [SART-3 peptide "426-434" Asp-Tyr-Leu-Arg-Arg-Arg-Val-Asp-Phe], the figure is 833 pg/mL.

On to WLHDEISMA [SART-3 peptide "152-160"], for which, in test [2], the “IFN-γ … with no peptide subtracted” value is 162 pg/mL. Take LFEKAVKDYI [SART-3 peptide "172-181" Leu-Phe-Glu-Lys-Ala-Val-Lys-Asp-Tyr-Ile]: the “IFN-γ in the supernatant … (no peptide: 677)” value in test [1] stood at 830 pg/mL. On to SLFRRQLAI [SART-3 peptide "249-257"], for which, in test [2], the “IFN-γ … with no peptide subtracted” value came to 209 pg/mL.
